Laboratory results reported in PMC10204179.

Molecular target: protein G_1
Experiment: SEC-MALS

stoichiometry N: 2
Substance: protein G_1
